Laboratory results taken from article PMC8460140 (2021).

B1: His6-tagged BiP, recombinant (natural protein)
chain: not shown
B2: His6-tagged BiP-IR (amino acids 497-654), recombinant (domain or fragment)
chain: IEVTFEIDVNGILRVTAEDKGTGNKNKITITNDQNRLTPEEIERMVNDAEKFAEEDKKLKERIDTRNELESYAYSLKNQIGDKEKLGGKLSSEDKETMEKAVEEKIEWLESHQDADIEDFKAKKKELEEIVQPIISKLYGSAGPPPTGEEDTAEKDEL

Biological target: T1, His6-tagged CB1R-CTD (amino acids 400-472), labeled with 5-IAF (UniProt P21554 400-472, labeled with 5-(iodoacetamido)fluorescein (5-IAF); labeled residue not stated)
T1 chain: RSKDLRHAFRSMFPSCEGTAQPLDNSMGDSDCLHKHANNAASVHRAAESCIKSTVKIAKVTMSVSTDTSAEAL
Experiment: FP

Binder	Kd [µM]
B1	17.7
B2	17.3
